Measured values: article PMC5797941

Target: T1, His6-SlyA (Escherichia coli K-12 MG1655?) (UniProt P0A8W3)
T1 sequence: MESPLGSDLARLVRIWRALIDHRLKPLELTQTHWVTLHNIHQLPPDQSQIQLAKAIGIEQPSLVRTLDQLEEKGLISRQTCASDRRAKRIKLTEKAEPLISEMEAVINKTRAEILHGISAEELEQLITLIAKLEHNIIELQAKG
Assay: EMSA
Settings: 20 µl: 10 mM Tris/HCl pH 7.5, 50 mM KCl, 1 mM DTT, poly(dI-dC) (1 µg), ~1 nM biotin-DNA, 0-500 nM SlyA, 25 °C, 30 min

Sequence | DNA binding | binding
GATGTATGTTCTAATAAAATAGATTGGGTGGGTTGTATATTGACGTTAGTATAAATAGTATTAATGCCGCTTGCATGAATCAAGCAAAATTTATTTATATTAGTAATATGTATTTAATTAATAAATACATACATTATTTTTATGATTAAGGATAATCAATAATTAAAACAGGAAGTTCT (double strand) [gspA-gspC intergenic region] | binds | 
TGTTGCTAATAGTTAAATCGCGAATCATAAAAAGCAAAGGATCTTTTAACGAAATGTTAACTATGCGATCTGTATAGCAACTGCGGAAAACATTAATGCACTGATAAATAATGATTTATAAAAATAGGGTGCGAAATCCGTCACAGTTCAAACATACAAAATTTGTGATTTTACTTAACTATTGTGTAACTTTCATAAAACAATGTGATTCGTGTTTTTAATTAATTCACGAAAACTGGAATCGTAAAGGTGATGAC (double strand) [paaA-paaZ intergenic region] | binds | 
GCAAGCACCTTAAAATCACCATCATACACTAAATCAGTAAGTTGGCAGCATTACCGAAATCCCCATCCTTTAGGGCAGTGAGGATGTCAATAATAGCAGACCACATCATGAGTCATTCTGACCGACACATGCCAGAAGCAGAGGCTCCATCCCATTTTATACCTACCTTATAACACTTAGAAAAACAACATGTTAAAAATGTCTATTGGAAACAATTTTATTTCCAATTGTAATGATAACCATTCTCATATTAATATGACTACGTGATAATTAACTTTTGATGCACTCCGC (double strand) [fecI-insA-7 intergenic region] | binds | 
GATGGGGATAAGCAGAGCGCTTATCCCCGGCAAAGAGCAATAACCCTTCTGCGATCCCTGCCGCCTTCGTCAAAAGTATCGACGGGGATCGCTACCAGATTAACCCGAATCGGCATGGAGTCAACGACGG (double strand) [sgcA-sgcQ intergenic region] |  | no binding
